This test concerns the target T1, recombinant EGFRvIII/Fc protein (UniProt P00533 25-645).
T1 construct: Staining reagent for flow cytometry; not shown: Fc part not described
The test can be described thus: flow cytometry, CAR T cells stained with recombinant EGFRvIII/Fc, day 1. As to the method: Briefly, EGFRvIII-specific CAR vectors were introduced into via electroporation, using a Sleeping Beauty-based transposon system to mediate genomic integration of the transposons. On day 0, PBMC were mixed with CAR transposon and SB transposase and electroporated. The following day (day1) cells count and viability were measured followed by flow cytometry to quantify CAR expression. CAR-T cells were stimulated by co-culture with either γ-irradiated) or mitomycin C treated AaPCs. The AaPC cells used were K562 cell line expressing EGFRvIII antigen. EGFRvIII-CAR-T cells were expanded ex vivo by once weekly stimulation with the AaPCs. Cultures were maintained in media supplemented with IL-2 (and/or IL-21. EGFRvIII-specific CAR expression was measured using recombinant EGFRvIII/Fc protein staining as detected by multi-parameter flow cytometry.

B1: EGFRvIII CAR (MR1-1 scFv · CD8alpha 4x hinge&TM · 4-1BB · CD3ζ) (receptor)
chain: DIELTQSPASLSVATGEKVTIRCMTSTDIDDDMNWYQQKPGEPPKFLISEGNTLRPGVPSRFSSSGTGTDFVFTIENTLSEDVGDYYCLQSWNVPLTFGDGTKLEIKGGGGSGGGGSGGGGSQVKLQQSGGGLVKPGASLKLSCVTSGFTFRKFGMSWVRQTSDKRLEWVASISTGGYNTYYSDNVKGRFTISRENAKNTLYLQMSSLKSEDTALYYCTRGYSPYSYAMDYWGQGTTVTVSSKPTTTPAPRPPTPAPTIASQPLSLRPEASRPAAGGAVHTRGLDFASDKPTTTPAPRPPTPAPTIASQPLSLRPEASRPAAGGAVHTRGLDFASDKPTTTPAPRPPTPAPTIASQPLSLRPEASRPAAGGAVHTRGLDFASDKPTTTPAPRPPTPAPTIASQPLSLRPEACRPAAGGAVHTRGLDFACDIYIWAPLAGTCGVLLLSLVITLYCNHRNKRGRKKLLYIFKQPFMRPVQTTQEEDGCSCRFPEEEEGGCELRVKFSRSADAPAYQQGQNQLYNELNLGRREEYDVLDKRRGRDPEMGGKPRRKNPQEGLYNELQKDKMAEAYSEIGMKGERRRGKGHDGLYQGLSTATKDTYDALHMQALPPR
notes: Expressed on human T cells; also called MR1-1 CAR CD8-4×
As for B1, the binding result is reported as “binds”.

B2: EGFRvIII CAR (MR1-1 scFv · CD8alpha 3x hinge&TM · 4-1BB · CD3ζ) (receptor)
chain: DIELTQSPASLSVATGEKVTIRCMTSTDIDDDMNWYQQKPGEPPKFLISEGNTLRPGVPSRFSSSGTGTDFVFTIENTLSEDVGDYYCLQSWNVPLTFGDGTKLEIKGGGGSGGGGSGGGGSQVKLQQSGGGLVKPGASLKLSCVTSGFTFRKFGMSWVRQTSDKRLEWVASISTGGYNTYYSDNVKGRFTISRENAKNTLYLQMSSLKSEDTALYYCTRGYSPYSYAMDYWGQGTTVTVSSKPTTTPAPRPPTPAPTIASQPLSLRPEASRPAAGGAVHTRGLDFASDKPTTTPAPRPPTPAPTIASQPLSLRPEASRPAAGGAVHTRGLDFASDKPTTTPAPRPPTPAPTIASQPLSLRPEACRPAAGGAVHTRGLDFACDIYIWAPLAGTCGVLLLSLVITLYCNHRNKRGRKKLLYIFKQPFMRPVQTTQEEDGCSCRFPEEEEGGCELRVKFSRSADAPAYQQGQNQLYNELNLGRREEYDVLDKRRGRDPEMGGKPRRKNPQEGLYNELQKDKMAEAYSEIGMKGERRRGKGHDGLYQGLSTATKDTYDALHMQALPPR
notes: Expressed on human T cells; also called MR1-1 CAR CD8-3×
In the case of B2, the binding result is “binds”.

The values are drawn from US20190111080A1 (PRECIGEN, published 2019).
